Measurements: US20160046707A1 (EISAI R AND D MANAGEMENT, published 2016)

Key:
Test in all cases: ELISA, plate-bound chemokine (1 ug/ml), antibody 10 ug/ml, OD450
recombinant human CCL28 = target: T1, recombinant human CCL28 (human, UniProt Q9NRJ3 23-127, limits assumed)
T1 sequence (looked up): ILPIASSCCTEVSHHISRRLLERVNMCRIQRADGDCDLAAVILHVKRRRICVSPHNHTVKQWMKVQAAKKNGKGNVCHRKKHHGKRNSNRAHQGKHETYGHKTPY
Method: (§1) The wells of a 96-well plate were coated with 1 μg/ml of the recombinant human chemokines in PBS (−). After overnight incubation at 4° C., the wells were blocked with 1× Block-Ace (Dainippon Sumitomo Pharma, UK-B80) for 1 hour at room temperature. After washing twice with 0.02% Tween 20/PBS (−), we added 50 μl of 10 μg/ml purified 36F7C10, chimeric 36F710, HC2/LK3, or HC2/LC3 in 0.02% Tween 20/PBS (−) to each well. The wells were incubated for 1 hour at room temperature and washed three times as described in Example 3. […] After washing five times, a TMBZ (3,3′,5,5′-tetramethylbenzidine) solution (1%, in N,N-Dimethylformamide) was added to the wells and incubated for 15-30 minutes. The reaction was stopped by adding an equal volume of a 2 M H₂SO₄ stopping solution, and the optical density was read at 450 nm by ARVO (PerkinElmer).

recombinant human CCL27 = target: T2, recombinant human CCL27 (human, UniProt Q9Y4X3 25-112)
T2 construct: also called CTACK
T2 sequence (looked up): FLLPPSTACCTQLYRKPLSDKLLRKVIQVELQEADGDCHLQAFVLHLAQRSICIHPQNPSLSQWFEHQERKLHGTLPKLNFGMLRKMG
Method: as §1

recombinant human CCL25 = target: T3, recombinant human CCL25 (human, UniProt O15444 24-150)
T3 construct: also called TECK
T3 sequence (looked up): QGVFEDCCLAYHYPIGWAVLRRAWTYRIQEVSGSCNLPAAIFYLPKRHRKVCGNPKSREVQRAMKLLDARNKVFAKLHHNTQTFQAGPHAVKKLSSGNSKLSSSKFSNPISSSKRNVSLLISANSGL
Method: as §1

recombinant human CCL24 = target: T4, recombinant human CCL24 (human, UniProt O00175 27-119, limits assumed)
T4 construct: also called Eotaxin-2/MPIF-2
T4 sequence (looked up): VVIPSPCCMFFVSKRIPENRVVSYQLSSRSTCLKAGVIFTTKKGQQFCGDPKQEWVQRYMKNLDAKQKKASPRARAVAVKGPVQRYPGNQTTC
Method: as §1

recombinant human CCL21 = target: T5, recombinant human CCL21 (human, UniProt O00585 24-134)
T5 construct: also called 6Ckine/SLC
T5 sequence (looked up): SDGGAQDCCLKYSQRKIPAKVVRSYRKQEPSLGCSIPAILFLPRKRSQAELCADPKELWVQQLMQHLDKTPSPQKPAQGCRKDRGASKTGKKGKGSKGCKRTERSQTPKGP
Method: as §1

recombinant human CCL17 = target: T6, recombinant human CCL17 (human, UniProt Q92583 24-94)
T6 construct: also called TARC
T6 sequence (looked up): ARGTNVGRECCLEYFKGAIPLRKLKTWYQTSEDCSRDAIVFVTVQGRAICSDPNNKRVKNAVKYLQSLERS
Method: as §1

recombinant human CCL7 = target: T7, recombinant human CCL7 (human, UniProt P80098 24-99)
T7 construct: also called MARC
Method: as §1

recombinant human CCL3 = target: T8, recombinant human CCL3 (human, UniProt P10147 27-92, limits assumed)
T8 construct: also called MIP-1a
T8 sequence (looked up): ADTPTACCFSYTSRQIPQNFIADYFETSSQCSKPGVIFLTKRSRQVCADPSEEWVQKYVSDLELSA
Method: as §1

recombinant human CCL2 = target: T9, recombinant human CCL2 (human, UniProt P13500 24-99)
T9 construct: also called MCP-1/MCAF/JE
Method: as §1

recombinant human CCL1 = target: T10, recombinant human CCL1 (human, UniProt P22362 24-96, limits assumed)
T10 sequence (looked up): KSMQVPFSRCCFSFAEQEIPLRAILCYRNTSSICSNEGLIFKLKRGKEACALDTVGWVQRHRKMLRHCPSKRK
Method: as §1

recombinant human CXCL16 = target: T11, recombinant human CXCL16 (human, UniProt Q9H2A7 30-118, limits assumed)
T11 sequence (looked up): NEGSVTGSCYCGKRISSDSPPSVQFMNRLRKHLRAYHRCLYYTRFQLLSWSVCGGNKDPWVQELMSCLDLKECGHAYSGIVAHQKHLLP
Method: as §1

recombinant human CXCL13 = target: T12, recombinant human CXCL13 (human, UniProt O43927 23-109)
T12 construct: also called BCA-1/BLC
T12 sequence (looked up): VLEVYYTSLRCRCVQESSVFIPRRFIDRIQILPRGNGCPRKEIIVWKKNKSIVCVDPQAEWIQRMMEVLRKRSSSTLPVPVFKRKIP
Method: as §1

recombinant human CXCL9 = target: T13, recombinant human CXCL9 (human, UniProt Q07325 23-125)
T13 construct: also called MIG
T13 sequence (looked up): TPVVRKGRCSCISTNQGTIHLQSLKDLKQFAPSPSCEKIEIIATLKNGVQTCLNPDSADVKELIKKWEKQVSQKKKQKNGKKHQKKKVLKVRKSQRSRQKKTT
Method: as §1

recombinant human CXCL2 = target: T14, recombinant human CXCL2 (human, UniProt P19875 35-107)
T14 construct: also called GROβ
T14 sequence (looked up): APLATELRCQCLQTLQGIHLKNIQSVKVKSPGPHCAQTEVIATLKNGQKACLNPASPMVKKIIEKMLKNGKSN
Method: as §1

Measured: binding result

T7 sequence (P80098 24-99 limits assumed): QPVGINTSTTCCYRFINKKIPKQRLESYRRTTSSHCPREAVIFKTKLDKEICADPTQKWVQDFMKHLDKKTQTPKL
T9 sequence (P13500 24-99 limits assumed): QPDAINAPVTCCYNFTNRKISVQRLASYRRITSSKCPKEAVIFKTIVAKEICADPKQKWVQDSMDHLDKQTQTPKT

B1: mouse anti-human CCL20 monoclonal antibody 36F7C10 (antibody, V domains shown)
VH: QVQLQQPGAELVKPGASVKMSCKASGYTFTNYWMHWVKQRPGQGLEWIGVIDPSDSYTTYNQKFKGKATLTVDTSSSTAYMQLSSLTSEDSAVYYCTRGNYGVDYAMDYWGQGTSVTVSS
VL: DIQMTQSPASLSASVGETVTITCGASENIYGALNWYQRKQGKSPQLLIYGATNLADGMSSRFSGSGSGRQYSLKISSLHPDDVATYYCQNVLITPYTFGGGTKLEIK
notes: Mouse hybridoma antibody; also called MouseMAb; parental mouse clone 36F7C10
no binding (tested: 10 ug/ml): all assays above

B2: chimeric 36F7C10 antibody (36F7C10-hFc) (antibody, V domains shown)
VH: QVQLQQPGAELVKPGASVKMSCKASGYTFTNYWMHWVKQRPGQGLEWIGVIDPSDSYTTYNQKFKGKATLTVDTSSSTAYMQLSSLTSEDSAVYYCTRGNYGVDYAMDYWGQGTSVTVSS
VL: DIQMTQSPASLSASVGETVTITCGASENIYGALNWYQRKQGKSPQLLIYGATNLADGMSSRFSGSGSGRQYSLKISSLHPDDVATYYCQNVLITPYTFGGGTKLEIK
notes: also called chimeric 36F710; Chimeric MAb
no binding (tested: 10 ug/ml): all assays above

B3: humanized anti-human CCL20 antibody 36LK3/36HC2 (antibody, human IgG1, kappa, V domains shown)
VH: QVQLVQSGAEVKKPGASVKVSCKASGYTFTNYWMHWVRQAPGQGLEWMGVIDPSDSYTTYAQKFQGRVTMTVDTSTSTVYMELSSLRSEDTAVYYCARGNYGVDYAMDYWGQGTLVTVSS
VL: DIQMTQSPSSLSASVGDRVTITCGASENIYGALNWYQRKPGKAPKLLIYGATNLADGVPSRFSGSGSGRDYTLTISSLQPEDFATYYCQNVLITPYTFGQGTKLEIKR
notes: expressed in HEK293 cells; also called HC2/LK3; HC2LK3
no binding (tested: 10 ug/ml): all assays above

B4: humanized anti-human CCL20 antibody 36LC3/36HC2 (antibody, human IgG1, kappa, V domains shown)
VH: QVQLVQSGAEVKKPGASVKVSCKASGYTFTNYWMHWVRQAPGQGLEWMGVIDPSDSYTTYAQKFQGRVTMTVDTSTSTVYMELSSLRSEDTAVYYCARGNYGVDYAMDYWGQGTLVTVSS
VL: DIQMTQSPSSLSASVGDRVTITCRASENIYGALNWYQQKPGKAPKLLIYGATNLADGVPSRFSGSGSGRQYSLTISSLQPEDFATYYCQNVLITPYTFGGGTKLEIKR
notes: expressed in HEK293 cells; also called HC2/LC3; HC2LC3
no binding (tested: 10 ug/ml): all assays above
